For assay [1], the target named is T1, human PD-L1 antigen (ACROBiosystems) (human, UniProt Q9NZQ7 19-238).
T1 construct: Bought antigen coated on ELISA plates
Briefly: ELISA, coated antigen. The method, then:
(§1) The binding ability of monoclonal antibody to human PD-L1, as well as the species specificity, was detected using an enzyme-linked immunosorbent assay (ELISA). The specific method is as follows: human PD-L1, cynomolgus PD-L1, rat PD-L1, and mouse PD-L1 antigens (all purchased from ACROBiosystems) were coated with 1 μg/mL carbonate buffer (pH=9.6) in an ELISA plate at 100 μL per well, followed by incubation at 4° C. overnight. The wells were washed 5 times with PBST. 300 μL/well of PBST containing 1% BSA was added to block the wells, and the plate was incubated at room temperature for 1 hour. The wells were washed 5 times with PBST. […] The wells were washed 5 times with PBST. […] The wells were washed 5 times with PBST. Colorimetric substrate TMB was added at 100 μL per well and allowed to develop color at room temperature for 10 minutes, followed by the addition of 1 M sulfuric acid to terminate the reaction. The OD_{450 nm} was read on a microplate reader to analyze the results, and the EC₅₀ was calculated using a 4-parameter fit binding curve.
(§2) These monoclonal antibodies are not able to bind to rat PD-L1 or mouse PD-L1.
On the technique in general: In an ELISA, binding on a coated surface is turned into a signal by an enzyme label.

Assay [2] has as its target T2, cynomolgus PD-L1 antigen (ACROBiosystems) (cynomolgus, UniProt G7PSE7 19-238).
T2 construct: Bought antigen coated on ELISA plates; construct not described
Briefly: ELISA, coated antigen. The method, then: as §1, §2

Assay [3] has as its target T3, rat PD-L1 antigen (ACROBiosystems) (rat, UniProt D4AE25 19-239).
T3 construct: Bought antigen coated on ELISA plates; construct not described
Briefly: ELISA, coated antigen. The protocol: as §1, §2

Assay [4] addresses T4, mouse PD-L1 antigen (ACROBiosystems) (mouse, UniProt Q9EP73 19-239).
T4 construct: Bought antigen coated on ELISA plates; construct not described
Briefly: ELISA, coated antigen. The protocol:
as §1, §2

Assay [5] has as its target T1, human PD-L1 antigen (ACROBiosystems). Briefly: BLI (Gator), antibody captured on PA probe, human PD-L1 in solution. The protocol:
The interaction between monoclonal antibodies and antigens was detected using Gator, a label-free biomolecular interaction analyzer based on the principle of biolayer interferometry (BLI). The specific method is as follows: monoclonal antibody was diluted to 50 nM and added to a probe plate using a PA probe, allowing the monoclonal antibody to be captured by the PA probe. Human PD-L1, an antigen serially diluted starting from 200 nM, was then added for interaction with the […] captured by the PA probe. The interaction was analyzed by detecting the signal change of the reflected interference spectrum on the surface of the probe, and the binding kinetic constants of the antibody were finally calculated.

T3 sequence (D4AE25 entry or part of it limits assumed): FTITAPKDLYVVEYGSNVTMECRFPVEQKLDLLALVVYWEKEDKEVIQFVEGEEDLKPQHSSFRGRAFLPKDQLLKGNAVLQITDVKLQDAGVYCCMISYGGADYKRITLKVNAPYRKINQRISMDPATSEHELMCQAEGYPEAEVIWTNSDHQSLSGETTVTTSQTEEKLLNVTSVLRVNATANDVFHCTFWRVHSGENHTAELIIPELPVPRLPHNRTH
T4 sequence (Q9EP73 19-239 limits assumed): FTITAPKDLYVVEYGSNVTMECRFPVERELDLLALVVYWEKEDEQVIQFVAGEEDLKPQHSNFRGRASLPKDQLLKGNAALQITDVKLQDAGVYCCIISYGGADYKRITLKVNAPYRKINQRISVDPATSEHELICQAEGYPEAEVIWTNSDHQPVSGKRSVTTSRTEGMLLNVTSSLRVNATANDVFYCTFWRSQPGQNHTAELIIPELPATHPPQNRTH
T2 sequence (G7PSE7 entry or part of it): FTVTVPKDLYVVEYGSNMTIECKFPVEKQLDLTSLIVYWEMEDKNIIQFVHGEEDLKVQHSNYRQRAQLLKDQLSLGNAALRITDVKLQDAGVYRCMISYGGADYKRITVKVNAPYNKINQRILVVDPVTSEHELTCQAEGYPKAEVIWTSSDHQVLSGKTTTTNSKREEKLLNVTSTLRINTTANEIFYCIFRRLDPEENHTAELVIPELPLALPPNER
T1 sequence (Q9NZQ7 19-238 limits assumed): as the sequence (G7PSE7 entry or part of it) above, with T33A, S34A, N62S, Q68R, R82Q, L173F, A185T, I192T, L215H counted along it

B1: anti-PD-L1 monoclonal antibody 1029 (antibody, human IgG1, V domains shown)
VH: EVQLVESGGGLVQPGGSLRLSCAASGFTLDYYSKCWFRQAPGKEREWVSCIGSSDGSTYYADSVKGRFTISRDNAKNTVYLQMNSLRAEDTAVYYCAARNGGPLTIENFFDYWGQGTQVTVSS
In the case of B1, the values for the EC50 in assay [1] and in assay [2] were 0.012 nM and 0.013 nM, respectively. In addition, the binding result in assay [3] and in assay [4] was “no binding” throughout. The same molecule displayed a Kd in assay [5] of 4.37 nM. In assay [5], this molecule came in with a koff of 0.00422 s⁻¹. Also, in assay [5], the kon is 967000 M⁻¹ s⁻¹.

B2: anti-PD-L1 monoclonal antibody 1031 (antibody, human IgG1, V domains shown)
VH: EVQLVESGGGLVQPGGSLRLSCAASGFTFEYYTKCWFRQAPGKEREWVSCISTSEGSTYYADSVKGRFTISRDNAKNTVYLQMNSLRAEDTAVYYCAARKGGPLTIENFFDYWGQGTQVTVSS
With B2, the figures for the EC50 in assay [1] and in assay [2] were 0.02 nM and 0.018 nM, respectively. The binding result in assay [3] and in assay [4] was “no binding” each time. The molecule also showed a Kd in assay [5] of 8.3 nM. In assay [5], this molecule returned a koff of 0.00913 s⁻¹. Moreover, the kon in assay [5] was found to be 1.1e+06 M⁻¹ s⁻¹.

B3: anti-PD-L1 monoclonal antibody 1541 (antibody, human IgG1, V domains shown)
VH: EVQLVESGGGLVQPGGSLRLSCAASGFTFDYYTQCWFRQAPGKEREWVSCISSSEGSTYYADSVKGRFTISRDNSKNTVYLQMNSLKTEDTAVYYCAARKGGPLTIENFFDYWGQGTQVTVSS
In the case of B3, the EC50 in assay [1] worked out at 0.014 nM. For the same molecule, in assay [2], the EC50 stood at 0.018 nM. Further, the binding result in assay [3] was “no binding”. Further, the binding result in assay [4] is “no binding”. In assay [5], this molecule gave a Kd of 4.38 nM, a koff of 0.00293 s⁻¹ and a kon of 670000 M⁻¹ s⁻¹.

The EC50 is the concentration that produces a half-maximal response. For orientation: Kd means a measure of binding affinity in units of concentration. Broadly, the koff is the rate constant with which the complex falls apart. Low readings indicate a long-lived complex, high ones a short-lived complex. Usually kon stands for the rate constant with which the complex forms.
